Reference: patent publication US20180313836A1 (Scripps Research, published 2018)
Values belong to the binder of their own block, whether it stands above or below them.

Target: T1, human glycyl-tRNA synthetase, wild type (GlyRS^WT) (human, UniProt P41250 55-739)
T1 construct: also called WT GlyRS; GARS
T1 sequence: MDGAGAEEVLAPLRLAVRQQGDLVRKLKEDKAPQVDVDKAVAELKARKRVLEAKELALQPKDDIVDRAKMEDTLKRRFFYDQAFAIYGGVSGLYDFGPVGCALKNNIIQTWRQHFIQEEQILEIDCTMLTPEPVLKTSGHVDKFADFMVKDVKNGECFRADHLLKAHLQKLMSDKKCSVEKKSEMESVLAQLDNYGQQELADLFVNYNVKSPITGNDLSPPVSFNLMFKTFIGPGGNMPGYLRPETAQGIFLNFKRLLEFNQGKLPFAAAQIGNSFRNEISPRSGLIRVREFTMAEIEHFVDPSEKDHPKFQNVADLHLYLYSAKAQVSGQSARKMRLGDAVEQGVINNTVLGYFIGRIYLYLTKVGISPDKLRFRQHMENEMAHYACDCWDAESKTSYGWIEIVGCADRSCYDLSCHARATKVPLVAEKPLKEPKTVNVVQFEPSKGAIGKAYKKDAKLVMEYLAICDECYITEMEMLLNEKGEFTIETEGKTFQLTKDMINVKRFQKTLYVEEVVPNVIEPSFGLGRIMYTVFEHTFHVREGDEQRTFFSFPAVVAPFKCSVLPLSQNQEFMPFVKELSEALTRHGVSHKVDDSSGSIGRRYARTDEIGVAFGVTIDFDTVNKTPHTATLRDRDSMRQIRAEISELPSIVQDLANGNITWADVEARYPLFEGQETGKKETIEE
Experiment: in vitro IP: Fc-fused Nrp1 domain constructs on Protein A resin, recombinant GlyRS added, blot GlyRS

binding result: no binding
B1: b2 (on Fc) (Fc fusion)
chain: KITDYPCSGMLGMVSGLISDSQITSSNQGDRNWMPENIRLVTSRSGWALPPAPHSYINEWLQIDLGEEKIVRGIIIQGGKHRENKVFMRKFKIGYSNNGSDWKMIMDDSKRKAKSFEGNNNYDTPELRTFPALSTRFIRIYPERATHGGLGLRMELLGCEVEAPTAGPTTPNGNLVDECDDDQANCHSGTGDDFQLTGGTTVLATEKPTVIDSTIQSEF
notes: also called Nrp1 b2 domain (res. Lys425-Phe643) fused to human IgG Fc; not shown: C-terminal human IgG Fc domain (and any V5-His tag from the vector); The CD33 signal peptide is cleaved on secretion

binding result: no binding
B2: c-Fc (drawn as the c box on Fc) (Fc fusion)
chain: TAGPTTPNGNLVDECDDDQANCHSGTGDDFQLTGGTTVLATEKPTVIDSTIQSEFPTYGFNCEFGWGSHKTFCHWEHDNHVQLKWSVLTSKTGPIQDHTGDGNFIYSQADENQKGKVARLVSPVVYSQNSAHCMTFWYHMSGSHVGTLRVKLRYQKPEEYDQLVWMAIGHQGDHWKEGRVLLHKSLKLYQVIFEGEIGKGNLGGIAVDDISINNHISQEDCAKPADLDKKNPEIKIDETGSTPGYEGEGEGD
notes: also called Nrp1 c domain (res. Thr589-Asp840) fused to human IgG Fc; not shown: C-terminal human IgG Fc domain (and any V5-His tag from the vector); The CD33 signal peptide is cleaved on secretion
